Read-outs that look alike come from different tables or passages of the source.
What was measured:
[1] = biological target: human PD-1 expressed on cells (Jurkat-Luc-hPD-1, CHO-K1-hPD1, Jurkat-hPD1) (human, UniProt Q15116 25-288); assay: cell-based or functional assay
[2] = biological target: T1, human PD-1/PDCD1 protein, His Tag (ACRO Biosystems Cat #PD1-H5221) (human, UniProt Q15116 25-167); assay: SPR (Biacore), antibody captured, His-tagged hPD-1 in solution
T1 construct: Bought protein; also called hPD-1; human PD-1 protein; not shown: His tag

[3] = biological target: T2, neonatal Fc receptor (FcRn); assay: SPR (Biacore), antibody captured, FcRn as analyte
T2 construct: Analyte in Biacore
Method: The binding affinity to neonatal Fc receptor (FcRn) was determined by Biacore® systems.

[4] = biological target: T3, human CD40 expressed on Jurkat-Luc-hCD40 reporter cells (human, UniProt P25942 21-277); assay: cell-based or functional assay
[5] = biological target: T3, human CD40 expressed on …; assay: cell-based or functional assay; remark: listed apart in the source
[6] = biological target: T4, human CD40/TNFRSF5 Protein, His Tag (ACRO Biosystems Cat #CD0-H5228) (human, UniProt P25942 21-193); assay: SPR (Biacore), antibody captured, His-tagged hCD40 in solution
T4 construct: Bought protein; also called hCD40; human CD40 protein; not shown: His tag

[7] = biological target: T3, human CD40 expressed on …; assay: cell-based or functional assay; remark: listed apart in the source
[8] = biological target: T4, human CD40/TNFRSF5 Protein, His Tag …; assay: SPR (Biacore), hCD40
Method: The binding affinity to human […] (hCD40) was determined by Biacore systems.

[9] = biological target: T3, human CD40 expressed on …; assay: cell-based or functional assay; remark: listed apart in the source
[10] = biological target: T3, human CD40 expressed on …; assay: cell-based or functional assay; remark: listed apart in the source
[11] = biological target: T3, human CD40 expressed on …; assay: cell-based or functional assay; remark: listed apart in the source
[12] = biological target: T3, human CD40 expressed on …; assay: cell-based or functional assay; remark: listed apart in the source
[13] = biological target: T3, human CD40 expressed on …; assay: cell-based or functional assay; remark: listed apart in the source
[14] = biological target: T3, human CD40 expressed on …; assay: cell-based or functional assay; remark: listed apart in the source

T3 sequence (P25942 21-277 limits assumed): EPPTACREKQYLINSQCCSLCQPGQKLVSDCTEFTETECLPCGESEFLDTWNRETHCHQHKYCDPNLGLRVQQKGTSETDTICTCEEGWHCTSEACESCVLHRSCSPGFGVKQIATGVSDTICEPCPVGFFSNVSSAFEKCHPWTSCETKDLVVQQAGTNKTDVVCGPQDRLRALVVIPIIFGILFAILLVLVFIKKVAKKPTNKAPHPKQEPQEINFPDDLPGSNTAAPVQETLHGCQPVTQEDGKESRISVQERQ
T1 sequence (Q15116 25-167 limits assumed): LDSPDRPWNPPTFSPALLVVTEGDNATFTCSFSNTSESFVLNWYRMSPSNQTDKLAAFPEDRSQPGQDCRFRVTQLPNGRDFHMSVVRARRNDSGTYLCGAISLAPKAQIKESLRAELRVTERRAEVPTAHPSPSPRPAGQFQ
human PD-1 expressed on cells (Jurkat-Luc-hPD-1, CHO-K1-hPD1, Jurkat-hPD1), sequence (Q15116 25-288 limits assumed): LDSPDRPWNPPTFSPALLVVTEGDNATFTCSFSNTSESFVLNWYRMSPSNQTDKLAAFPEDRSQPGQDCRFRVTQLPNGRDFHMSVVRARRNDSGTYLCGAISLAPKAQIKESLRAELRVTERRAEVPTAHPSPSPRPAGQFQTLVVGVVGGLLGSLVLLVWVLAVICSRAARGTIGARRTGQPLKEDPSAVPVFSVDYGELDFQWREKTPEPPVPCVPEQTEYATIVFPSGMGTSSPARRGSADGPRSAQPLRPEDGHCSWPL
T4 sequence (P25942 21-193 limits assumed): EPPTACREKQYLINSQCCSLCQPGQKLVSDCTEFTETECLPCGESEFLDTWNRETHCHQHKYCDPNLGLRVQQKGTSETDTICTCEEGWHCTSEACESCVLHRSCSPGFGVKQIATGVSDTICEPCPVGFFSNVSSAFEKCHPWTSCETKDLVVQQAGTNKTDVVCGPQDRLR
T2 sequence (P55899 24-297, chain 1 of 2): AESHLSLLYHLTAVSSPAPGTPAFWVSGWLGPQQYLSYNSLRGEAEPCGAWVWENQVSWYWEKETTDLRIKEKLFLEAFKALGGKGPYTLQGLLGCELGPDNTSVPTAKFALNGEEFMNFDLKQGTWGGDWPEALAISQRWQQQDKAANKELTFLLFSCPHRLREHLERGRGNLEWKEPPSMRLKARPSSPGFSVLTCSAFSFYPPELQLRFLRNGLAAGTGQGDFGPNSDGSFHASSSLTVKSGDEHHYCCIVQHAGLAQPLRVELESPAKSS
T2 sequence (P61769 21-119, chain 2 of 2, further chain): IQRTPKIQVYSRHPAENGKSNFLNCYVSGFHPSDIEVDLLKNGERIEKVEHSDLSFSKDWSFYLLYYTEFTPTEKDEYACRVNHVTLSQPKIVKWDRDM

B1: anti-PD-1 monoclonal antibody 1A7-H2K3-IgG4 (antibody)
VH: EVQLVESGGGLVQPGGSLRLSCAASGFTFSSYSMSWVRQAPGKRLEWVAHISSGGSSTYYPDTVKGRFTISRDNSKNTLYLQMNSLRAEDTAMYYCTRQFYYGSSFWYFDVWGAGTTVTVSS
light: DNVLTQSPATLSVSPGERATLSCKASQSVDFDGDSYMNWYQQKPGQPPRLLIYAASNLESGIPARFSGSGSGTDFTLTISSVEPEDFATYYCQQSNEDPPTFGGGTKVEIKRTVAAPSVFIFPPSDEQLKSGTASVVCLLNNFYPREAKVQWKVDNALQSGNSQESVTEQDSKDSTYSLSSTLTLSKADYEKHKVYACEVTHQGLSSPVTKSFNRGEC
notes: IgG4; also called PD-1 (1A7-H2K3-IgG4); PD1-1A7-H2K3-IgG4
For B1, which “EC50 Value (ug/ml), luminescence of Jurkat-Luc-hPD-1 effector cells co-cultured with CHO-aAPC-hPD-L1 cells” value [1] is on record?
The value was 5.61 µg/mL.

What about the Kd [2] of the same binder?
Its Kd is 8.56 nM.

And the koff [2]?
Its koff is 0.00125 s⁻¹.

What about the kon [2] of the same binder?
The kon was 146000 M⁻¹ s⁻¹.

And the Kd [3]?
Its Kd is 2210 nM.

B2: anti-CD40 monoclonal antibody 6A7-H4K2-IgG2 (antibody, V domains shown)
VH: QVQLVQSGAEVKKPGASVKLSCKASGYTFISYYIYWVKQAPGQGLEWIGGINPRNGGTNFNEKFKSRATLTVDTSISTAYMELSRLRSEDTAVYYCTRHGNGVYWGQGTTLTVSS
VL: DVVMTQSPLSLPVTLGQPASISCRSSQSLLHSNGNTYLHWYQQRPGQSPNHLIYQVSNRFSGVPDRFSGSGSGTDFTLKISRVEAEDVGVYFCSQTTHVPWTFGGGTKVEIK
notes: IgG2; also called CD40 (6A7-H4K2-IgG2); C40 (6A7-H4K2-IgG2)
Which “EC50 (read off the curve), luciferase Rlu, Jurkat-Luc-hCD40 reporter cells with CHO-K1-hFcγRIIB basal cells” value [4] does the source give for B2 here?
The value was roughly 0.02 µg/mL.

What about the “EC50 Value (ug/ml), luminescence of Jurkat-Luc-hCD40 reporter cells in the presence of Jurkat-hPD1 basal cells” value (“EC50 Value (ug/ml) … of Jurkat-hPD1 basal cells” below) [5] of the same binder?
Its value is 0.0089 µg/mL.

What about the Kd [6] of the same binder?
The Kd was 3.06 nM.

And the koff [6]?
Its koff is 0.000322 s⁻¹.

What about the kon [6] of the same binder?
Its kon is 105000 M⁻¹ s⁻¹.

What about the “EC50 (read off the curve), luciferase Rlu, Jurkat-Luc-hCD40 reporter cells with CHO-K1-hFcγRIIB basal cells” value [7] of the same binder?
The value was roughly 0.01 µg/mL.

And the Kd [8]?
Its Kd is 3.06 nM.

And the koff [8]?
Its koff is 0.000322 s⁻¹.

And the kon [8]?
The kon was 105000 M⁻¹ s⁻¹.

What about the “EC50 (read off the curve), luciferase Rlu, Jurkat-Luc-hCD40 reporter cells, no basal cells” value [9] of the same binder?
The value was roughly 0.3 µg/mL.

What about the “EC50 Value (ug/ml), luminescence of Jurkat-Luc-hCD40 reporter cells in the presence of CHO-K1-hFcγRIIB basal cells” value [10] of the same binder?
Its value is 0.0203 µg/mL.

B3: ScFV-HC-IgG4 (bispecific antibody)
heavy: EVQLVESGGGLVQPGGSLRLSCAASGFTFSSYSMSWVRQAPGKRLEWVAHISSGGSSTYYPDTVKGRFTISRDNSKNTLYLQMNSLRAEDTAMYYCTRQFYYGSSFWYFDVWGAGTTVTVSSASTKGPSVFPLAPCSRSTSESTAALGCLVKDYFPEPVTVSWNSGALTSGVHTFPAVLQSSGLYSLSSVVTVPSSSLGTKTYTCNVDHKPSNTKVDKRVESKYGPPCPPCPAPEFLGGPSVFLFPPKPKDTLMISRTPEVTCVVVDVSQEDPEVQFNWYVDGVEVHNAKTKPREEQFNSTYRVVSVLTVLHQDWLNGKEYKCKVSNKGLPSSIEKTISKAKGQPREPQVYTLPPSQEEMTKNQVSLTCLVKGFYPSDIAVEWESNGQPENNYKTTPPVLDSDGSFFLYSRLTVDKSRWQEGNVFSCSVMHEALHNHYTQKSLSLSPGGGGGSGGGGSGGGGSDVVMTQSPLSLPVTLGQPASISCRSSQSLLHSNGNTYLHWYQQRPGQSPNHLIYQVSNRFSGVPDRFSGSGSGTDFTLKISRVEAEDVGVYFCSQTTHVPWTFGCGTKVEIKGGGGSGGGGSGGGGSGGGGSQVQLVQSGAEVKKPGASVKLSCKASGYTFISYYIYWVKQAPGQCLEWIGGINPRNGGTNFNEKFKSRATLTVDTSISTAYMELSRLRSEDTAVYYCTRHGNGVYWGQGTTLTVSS
light: B1 light
notes: Anti-CD40 scFv (6A7-H4K2) joined to the C-terminus of each heavy chain of the anti-PD-1 antibody 1A7-H2K3, IgG4
Which “EC50 Value (ug/ml) … of Jurkat-hPD1 basal cells” value [5] does the source give for B3 here?
The value was 0.0079 µg/mL.

And the “EC50 Value (ug/ml), luminescence of Jurkat-Luc-hCD40 reporter cells in the presence of CHO-K1-hPD1 basal cells” value [11]?
Its value is 0.0108 µg/mL.

And the Kd [6]?
The Kd was 1.3 nM.

And the koff [6]?
Its koff is 0.00034 s⁻¹.

And the kon [6]?
The kon was 261000 M⁻¹ s⁻¹.

And the “EC50 Value (ug/ml), luminescence of Jurkat-Luc-hPD-1 effector cells co-cultured with CHO-aAPC-hPD-L1 cells” value [1]?
Its value is 4.36 µg/mL.

And the Kd [2]?
The Kd was 8.28 nM.

What about the koff [2] of the same binder?
The koff was 0.00122 s⁻¹.

And the kon [2]?
Its kon is 148000 M⁻¹ s⁻¹.

B4: ScFV-HC-IgG1-LALA (bispecific antibody)
heavy: not shown
light: B1 light
B4 was tested. Which “EC50 Value (ug/ml) … of Jurkat-hPD1 basal cells” value [5] did it give?
Its value is 0.0065 µg/mL.

B5: Fab-ScFV-IgG4 (bispecific antibody)
heavy: EVQLVESGGGLVQPGGSLRLSCAASGFTFSSYSMSWVRQAPGKRLEWVAHISSGGSSTYYPDTVKGRFTISRDNSKNTLYLQMNSLRAEDTAMYYCTRQFYYGSSFWYFDVWGAGTTVTVSSASTKGPSVFPLAPCSRSTSESTAALGCLVKDYFPEPVTVSWNSGALTSGVHTFPAVLQSSGLYSLSSVVTVPSSSLGTKTYTCNVDHKPSNTKVDKRVESKYGPPCPPCPAPEFLGGPSVFLFPPKPKDTLMISRTPEVTCVVVDVSQEDPEVQFNWYVDGVEVHNAKTKPREEQFNSTYRVVSVLTVLHQDWLNGKEYKCKVSNKGLPSSIEKTISKAKGQPREPQVYTLPPCQEEMTKNQVSLWCLVKGFYPSDIAVEWESNGQPENNYKTTPPVLDSDGSFFLYSRLTVDKSRWQEGNVFSCSVMHEALHNHYTQKSLSLSLGK
light: B1 light
chain: QVQLVQSGAEVKKPGASVKLSCKASGYTFISYYIYWVKQAPGQCLEWIGGINPRNGGTNFNEKFKSRATLTVDTSISTAYMELSRLRSEDTAVYYCTRHGNGVYWGQGTTLTVSSASTGGGGSGGGGSGGGGSGGGGSDVVMTQSPLSLPVTLGQPASISCRSSQSLLHSNGNTYLHWYQQRPGQSPNHLIYQVSNRFSGVPDRFSGSGSGTDFTLKISRVEAEDVGVYFCSQTTHVPWTFGCGTKVEIKDKRVESKYGPPCPPCPAPEFLGGPSVFLFPPKPKDTLMISRTPEVTCVVVDVSQEDPEVQFNWYVDGVEVHNAKTKPREEQFNSTYRVVSVLTVLHQDWLNGKEYKCKVSNKGLPSSIEKTISKAKGQPREPQVCTLPPSQEEMTKNQVSLSCAVKGFYPSDIAVEWESNGQPENNYKTTPPVLDSDGSFFLVSRLTVDKSRWQEGNVFSCSVMHEALHNHYTQKSLSLSLGK
notes: Anti-PD-1 arm (1A7-H2K3 heavy and light chain, IgG4 with KIH) and anti-CD40 arm (6A7-H4K2 scFv joined to IgG4 CH2-CH3 with KIH)
What does the source list for B5?
EC50 (read off the curve), luciferase Rlu, Jurkat-Luc-hCD40 reporter cells with CHO-K1-hFcγRIIB basal cells [4]: ~0.05 µg/mL; EC50 (read off the curve), luciferase Rlu, Jurkat-Luc-hCD40 reporter cells with CHO-K1-hPD-1 basal cells [12]: ~0.04 µg/mL; EC50 Value (ug/ml), luminescence of Jurkat-Luc-hCD40 reporter cells in the presence of CHO-K1-hPD1 basal cells [11]: 0.0103 µg/mL; Kd [6]: 1.75 nM; koff [6]: 0.0005 s⁻¹; kon [6]: 285000 M⁻¹ s⁻¹; EC50 Value (ug/ml), luminescence of Jurkat-Luc-hPD-1 effector cells co-cultured with CHO-aAPC-hPD-L1 cells [1]: 23.4 µg/mL; Kd [2]: 9.78 nM; koff [2]: 0.00117 s⁻¹; kon [2]: 120000 M⁻¹ s⁻¹; EC50 Value (ug/ml), luminescence of Jurkat-Luc-hCD40 reporter cells in the presence of CHO-K1-hFcγRIIB basal cells [10]: 0.0543 µg/mL

B6: PD1-C40-6A7-FV3A (bispecific antibody, human IgG4 S228P, kappa)
heavy: EVQLVESGGGLVQPGGSLRLSCAASGFTFSSYSMSWVRQAPGKRLEWVAHISSGGSSTYYPDTVKGRFTISRDNSKNTLYLQMNSLRAEDTAMYYCTRQFYYGSSFWYFDVWGAGTTVTVSSASTKGPSVFPLAPCSRSTSESTAALGCLVKDYFPEPVTVSWNSGALTSGVHTFPAVLQSSGLYSLSSVVTVPSSSLGTKTYTCNVDHKPSNTKVDKRVESKYGPPCPPCPAPEFLGGPSVFLFPPKPKDTLMISRTPEVTCVVVDVSQEDPEVQFNWYVDGVEVHNAKTKPREEQFNSTYRVVSVLTVLHQDWLNGKEYKCKVSNKGLPSSIEKTISKAKGQPREPQVYTLPPSQEEGGGGSGGGGSDVVMTQSPLSLPVTLGQPASISCRSSQSLLHSNGNTYLHWYQQRPGQSPNHLIYQVSNRFSGVPDRFSGSGSGTDFTLKISRVEAEDVGVYFCSQTTHVPWTFGCGTKVEIKGGGGSGGGGSGGGGSGGGGSQVQLVQSGAEVKKPGASVKLSCKASGYTFISYYIYWVKQAPGQCLEWIGGINPRNGGTNFNEKFKSRATLTVDTSISTAYMELSRLRSEDTAVYYCTRHGNGVYWGQGTTLTVSSGGGGSGGGGSVSLTCLVKGFYPSDIAVEWESNGQPENNYKTTPPVLDSDGSFFLYSRLTVDKSRWQEGNVFSCSVMHEALHNHYTQKSLSLSPGK
light: B1 light
notes: Anti-CD40 scFv (6A7) fused into each heavy chain CH3 domain at positions 358-362 (EU numbering) of the anti-PD-1 antibody 1A7-H2K3-IgG4
Which “EC50 (read off the curve), luciferase Rlu, Jurkat-Luc-hCD40 reporter cells with CHO-K1-hPD-1 basal cells” value [12] does the source give for B6 here?
The value was roughly 0.03 µg/mL.

What about the Kd [8] of the same binder?
Its Kd is 0.419 nM.

What about the koff [8] of the same binder?
Its koff is 0.000255 s⁻¹.

What about the kon [8] of the same binder?
The kon was 608000 M⁻¹ s⁻¹.

And the Kd [3]?
The Kd was 1680 nM.

B7: Pembrolizumab-Seli-FVHC-IgG4 (bispecific antibody)
heavy: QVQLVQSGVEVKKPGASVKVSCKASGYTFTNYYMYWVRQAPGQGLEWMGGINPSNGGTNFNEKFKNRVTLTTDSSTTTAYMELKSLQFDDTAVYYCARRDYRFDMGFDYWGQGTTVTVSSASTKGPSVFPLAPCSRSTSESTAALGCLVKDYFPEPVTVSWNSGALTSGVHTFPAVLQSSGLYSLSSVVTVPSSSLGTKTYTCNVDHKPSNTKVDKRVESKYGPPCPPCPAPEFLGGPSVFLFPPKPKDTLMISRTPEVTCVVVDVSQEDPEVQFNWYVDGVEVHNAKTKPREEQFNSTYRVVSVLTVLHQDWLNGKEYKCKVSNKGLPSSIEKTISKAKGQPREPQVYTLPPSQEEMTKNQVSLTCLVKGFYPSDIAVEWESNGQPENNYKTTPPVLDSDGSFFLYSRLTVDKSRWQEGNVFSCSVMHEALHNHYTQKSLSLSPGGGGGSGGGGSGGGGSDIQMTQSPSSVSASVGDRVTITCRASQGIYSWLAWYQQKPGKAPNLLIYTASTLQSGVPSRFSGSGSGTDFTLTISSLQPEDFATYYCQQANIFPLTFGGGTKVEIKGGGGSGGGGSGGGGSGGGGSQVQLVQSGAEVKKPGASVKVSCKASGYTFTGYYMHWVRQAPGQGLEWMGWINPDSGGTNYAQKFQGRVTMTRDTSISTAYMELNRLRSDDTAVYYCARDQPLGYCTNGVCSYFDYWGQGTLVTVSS
light: EIVLTQSPATLSLSPGERATLSCRASKGVSTSGYSYLHWYQQKPGQAPRLLIYLASYLESGVPARFSGSGSGTDFTLTISSLEPEDFAVYYCQHSRDLPLTFGGGTKVEIKRTVAAPSVFIFPPSDEQLKSGTASVVCLLNNFYPREAKVQWKVDNALQSGNSQESVTEQDSKDSTYSLSSTLTLSKADYEKHKVYACEVTHQGLSSPVTKSFNRGEC
For B7, which “EC50 (read off the curve)” value [13] is on record?
Its value is roughly 0.1 µg/mL.

B8: 1A7-selicrelumab-FV3A-IgG4 (bispecific antibody)
heavy: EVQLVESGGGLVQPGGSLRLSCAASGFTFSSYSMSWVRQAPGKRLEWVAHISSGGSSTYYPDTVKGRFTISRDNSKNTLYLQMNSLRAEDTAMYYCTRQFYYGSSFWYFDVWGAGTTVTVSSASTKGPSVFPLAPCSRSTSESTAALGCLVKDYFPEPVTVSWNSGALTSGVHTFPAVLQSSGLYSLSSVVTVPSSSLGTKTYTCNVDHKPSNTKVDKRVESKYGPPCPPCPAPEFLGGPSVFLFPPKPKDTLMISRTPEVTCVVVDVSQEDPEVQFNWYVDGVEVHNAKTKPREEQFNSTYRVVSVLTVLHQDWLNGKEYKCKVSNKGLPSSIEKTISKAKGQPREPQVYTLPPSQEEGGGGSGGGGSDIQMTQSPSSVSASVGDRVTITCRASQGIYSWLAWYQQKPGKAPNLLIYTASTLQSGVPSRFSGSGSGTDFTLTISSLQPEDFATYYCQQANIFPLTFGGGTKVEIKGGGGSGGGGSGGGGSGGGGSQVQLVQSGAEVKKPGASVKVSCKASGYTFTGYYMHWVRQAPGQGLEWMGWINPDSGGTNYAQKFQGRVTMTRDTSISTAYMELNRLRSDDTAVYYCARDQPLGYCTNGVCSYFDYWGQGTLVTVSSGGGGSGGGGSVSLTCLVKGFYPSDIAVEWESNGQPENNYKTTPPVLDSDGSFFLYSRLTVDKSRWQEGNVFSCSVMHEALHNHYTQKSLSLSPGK
light: B1 light
Which “EC50 (read off the curve)” value [13] does the source give for B8 here?
Its value is roughly 0.3 µg/mL.

B9: Pembrolizumab-6A7-HC-IgG1-LALA (bispecific antibody)
heavy: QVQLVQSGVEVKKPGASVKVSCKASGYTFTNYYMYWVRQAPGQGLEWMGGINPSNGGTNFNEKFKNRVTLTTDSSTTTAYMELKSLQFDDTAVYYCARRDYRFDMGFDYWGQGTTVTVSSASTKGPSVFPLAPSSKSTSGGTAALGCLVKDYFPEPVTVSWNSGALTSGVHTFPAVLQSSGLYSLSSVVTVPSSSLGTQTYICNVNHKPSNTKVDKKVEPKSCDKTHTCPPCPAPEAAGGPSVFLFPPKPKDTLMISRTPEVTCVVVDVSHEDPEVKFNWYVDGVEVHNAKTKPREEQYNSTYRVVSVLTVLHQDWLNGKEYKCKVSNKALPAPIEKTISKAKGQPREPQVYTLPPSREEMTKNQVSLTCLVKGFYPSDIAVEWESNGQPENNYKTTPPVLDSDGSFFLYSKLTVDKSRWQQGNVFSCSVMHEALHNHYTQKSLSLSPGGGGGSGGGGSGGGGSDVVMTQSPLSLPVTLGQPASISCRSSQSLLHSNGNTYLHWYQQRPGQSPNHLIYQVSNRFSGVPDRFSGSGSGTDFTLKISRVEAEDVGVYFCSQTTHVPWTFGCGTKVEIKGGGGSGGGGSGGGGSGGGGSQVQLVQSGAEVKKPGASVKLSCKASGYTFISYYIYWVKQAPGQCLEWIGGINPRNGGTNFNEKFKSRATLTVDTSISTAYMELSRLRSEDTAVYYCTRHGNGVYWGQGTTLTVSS
light: B7 light
For B9, which “EC50 (read off the curve)” value [14] is on record?
Its value is roughly 0.07 µg/mL.

B10: Pembrolizumab-APX005M-FVHC-IgG4 (bispecific antibody)
heavy: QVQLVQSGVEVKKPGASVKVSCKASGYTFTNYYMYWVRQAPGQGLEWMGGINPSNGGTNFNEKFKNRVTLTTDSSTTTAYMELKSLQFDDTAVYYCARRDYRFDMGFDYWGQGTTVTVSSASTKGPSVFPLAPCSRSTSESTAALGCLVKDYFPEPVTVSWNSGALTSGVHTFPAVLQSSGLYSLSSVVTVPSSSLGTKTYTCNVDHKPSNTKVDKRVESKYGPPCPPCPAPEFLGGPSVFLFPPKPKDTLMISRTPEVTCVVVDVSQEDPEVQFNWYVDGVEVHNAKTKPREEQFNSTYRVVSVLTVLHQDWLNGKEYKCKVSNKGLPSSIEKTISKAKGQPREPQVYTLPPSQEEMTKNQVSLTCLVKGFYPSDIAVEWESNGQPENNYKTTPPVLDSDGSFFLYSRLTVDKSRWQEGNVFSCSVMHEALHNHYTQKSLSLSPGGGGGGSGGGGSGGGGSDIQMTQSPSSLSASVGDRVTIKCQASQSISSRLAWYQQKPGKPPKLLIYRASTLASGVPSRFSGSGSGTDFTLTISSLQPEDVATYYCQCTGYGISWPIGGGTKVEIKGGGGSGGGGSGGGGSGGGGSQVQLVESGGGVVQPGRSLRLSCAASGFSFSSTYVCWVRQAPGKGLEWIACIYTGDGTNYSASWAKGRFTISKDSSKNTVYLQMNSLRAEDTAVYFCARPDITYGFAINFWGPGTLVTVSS
light: B7 light
How did the “EC50 (read off the curve)” value [14] turn out when B10 was run?
The value was roughly 0.2 µg/mL.
